Measured values reported in the supplement of paper PMC9732359.
± gives the uncertainty stated by the source.

Assay: protein stability index of a GFP-peptide fusion (yeast GPS) (PSI 1-4); higher = more stable; sorted into four equal gates, so the index is relative within each strain
Procedure, shortened: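 Peptides tiling yeast proteins in 17-residue segments were fused downstream of GFP, with Cherry expressed from the same plasmid. As a pooled library in yeast, mid-log cultures grown in leucine-free medium were sorted into four equal gates by GFP/Cherry fluorescence ratio. Gate plasmids were PCR-amplified and Illumina-sequenced, and barcodes linked reads to strains. Each peptide received a protein stability index equal to the sum of each gate's read frequency times its gate number.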

Sequence	protein stability index (doa10∆)	protein stability index (pdr5∆)	protein stability index (san1∆)	protein stability index (ubr1∆)
LSLTAVPSFLRPDITMY [GRR1]	2.17 ± 0.043	2.34 ± 0.045	2.18 ± 0.051	2.33 ± 0.043
LKTFNGSLALLKLSMAD [POP4]	2.33 ± 0.046	2.33 ± 0.067	2.45 ± 0.063	2.36 ± 0.036
LQYANNAVISHANAAAV [SIN4]	1.83 ± 0.047	1.99 ± 0.041	1.91 ± 0.049	1.92 ± 0.03
RTPVPSTLMPGGVDVGP [SNF5]	–	3 ± 0.15	2.73 ± 0.17	–
IKNLPADVSKLMYSITF [SRB2]	2.41 ± 0.054	2.95 ± 0.046	2.38 ± 0.049	2.76 ± 0.047
QWSRIVLQNVFKLVSTP [MED1]	1.4 ± 0.039	1.24 ± 0.043	1.23 ± 0.08	1.34 ± 0.038
NILLRERDSYKLLASTE [YIL149C/MLP2]	2.59 ± 0.058	2.53 ± 0.055	2.49 ± 0.063	2.4 ± 0.055
EKNGGLGWDLDAIIPFA [FAS2]	3.14 ± 0.098	3.22 ± 0.13	3.28 ± 0.066	3.08 ± 0.068
SLTQSVCDLALRFGEGA [PUP2]	2.66 ± 0.19	3.34 ± 0.21	–	3.11 ± 0.21
ADDHASVQINVAKVDEE [RPS21A]	3.26 ± 0.062	3.08 ± 0.072	3.13 ± 0.045	3.26 ± 0.04
TSVQEKELMLQSKKLIE [YIL149C/MLP2]	2.65 ± 0.089	2.94 ± 0.096	2.84 ± 0.084	2.91 ± 0.063
LVISLAATNETFENINS [IRR1]	2.07 ± 0.11	2.4 ± 0.13	1.9 ± 0.095	–
IMDELLSSIAERVRNFA [DIB1]	1.9 ± 0.065	2.27 ± 0.086	2.06 ± 0.084	2.17 ± 0.082
VALPPGSNYNPYFPGGS [CYT1]	2.32 ± 0.058	2.81 ± 0.064	2.65 ± 0.067	2.64 ± 0.036
LSNPSNQNICTSVTRRS [GRR1]	2.42 ± 0.083	2.49 ± 0.052	2.62 ± 0.055	2.53 ± 0.039
DQTFPINCNKETIENVK [ECM29]	3.17 ± 0.082	2.93 ± 0.099	3.08 ± 0.07	3.4 ± 0.088
MAFQKDAKSSAYSSRFQ [RPL5]	2.67 ± 0.11	2.89 ± 0.072	3.02 ± 0.061	2.92 ± 0.064
ISEKDLVPKRCLFESLS [RPO31]	2.59 ± 0.12	3.38 ± 0.15	2.94 ± 0.16	3.03 ± 0.095
EEEDSILSLEQSSRVVS [YCS4]	3.11 ± 0.12	3.24 ± 0.08	3.19 ± 0.062	3.06 ± 0.086
VRPSISFNESQRGEDDL [RPO21]	2.49 ± 0.078	2.81 ± 0.088	2.75 ± 0.093	2.68 ± 0.083
EGLSAQIAFDLVSSASQ [RPN2]	2.6 ± 0.068	3.05 ± 0.075	2.67 ± 0.1	2.62 ± 0.039
EMDEKSYEKNEDHVEDH [LIN1]	3.3 ± 0.11	3.35 ± 0.089	3.49 ± 0.086	3.14 ± 0.052
SPTENGVFDPASYAKYL [RPL22A]	2.98 ± 0.051	3.19 ± 0.061	3.08 ± 0.045	2.88 ± 0.043
HVVGRIAEVGNKRWKVD [RRP4]	–	3 ± 0.17	2.89 ± 0.16	2.67 ± 0.082
SNSSSSPPIIDLFSNNN [MED1]	2.77 ± 0.06	2.82 ± 0.05	2.83 ± 0.042	2.9 ± 0.042

Sequence	protein stability index (doa10∆)	protein stability index (pdr5∆)	protein stability index (san1∆)	protein stability index (ubr1∆)
IADLDTEAEETSIHSTI [RRP43]	3.76 ± 0.18	2.56 ± 0.17	3.54 ± 0.11	3.38 ± 0.15
PTIRSNAVLGLGDMAVC [YCS4]	1.61 ± 0.088	1.64 ± 0.069	1.67 ± 0.13	1.71 ± 0.099
NKLTGKQIVFEIPSQTN [RPS7B]	2.79 ± 0.081	3.06 ± 0.13	2.88 ± 0.095	2.66 ± 0.086
RLPHQFRPIEIFTDFLP [RRP42]	1.86 ± 0.068	1.96 ± 0.07	2.03 ± 0.078	2.21 ± 0.066
HKLDLAKRNLDANPSSQ [SMC2]	1.86 ± 0.052	2.24 ± 0.065	1.67 ± 0.091	1.66 ± 0.035
LYPIFLLDDKKLMDEDS [YJR042W/NUP85]	2.01 ± 0.09	1.84 ± 0.14	1.38 ± 0.29	1.66 ± 0.057
ITASTLLYADSLTAEAM [CYT1]	2.1 ± 0.064	2.31 ± 0.059	2.51 ± 0.095	2.18 ± 0.039
GIEHFDIPPPAIMKPYY [RPO31]	2.69 ± 0.15	2.92 ± 0.084	3.34 ± 0.13	2.91 ± 0.099
EKSPDPTIRSNAVLGLG [YCS4]	2.38 ± 0.052	2.26 ± 0.054	2.3 ± 0.074	2.53 ± 0.043
LYVLPSFNIPRLTFKPW [YMR129W/POM152]	2.2 ± 0.12	1.7 ± 0.096	1.69 ± 0.18	1.54 ± 0.096
AKRAQFRKKRKFELGRQ [RPS8A]	3.24 ± 0.08	3.28 ± 0.077	3.31 ± 0.066	3.02 ± 0.081
IGEGAKLVRDAFALAKE [RPT5]	3.51 ± 0.12	3.38 ± 0.14	3.3 ± 0.093	3.5 ± 0.11
KVFDCGDNIVMSANGFA [PRE7]	2.88 ± 0.24	2.92 ± 0.12	2.88 ± 0.11	2.97 ± 0.15
EIPEGVTVSIKSRIVKV [RPL9B]	1.29 ± 0.055	1.45 ± 0.075	1.44 ± 0.27	1.35 ± 0.11
TKIIMATNRPDTLDPAL [RPT4]	2.98 ± 0.065	3 ± 0.063	2.9 ± 0.054	3.12 ± 0.1
PLNVLQDQYKEGIKVVD [SNF2]	–	2.46 ± 0.11	1.78 ± 0.092	2.62 ± 0.093
RFQKCFPPGVIGIDEGS [RPC40]	2.15 ± 0.11	2.15 ± 0.22	–	2.43 ± 0.18
NAKKRVFKTHSYRGVDL [RPS15]	2.93 ± 0.053	2.15 ± 0.033	3.16 ± 0.039	3.32 ± 0.047
QDDDFPLDDAGTIGWDL [MCD1]	3.04 ± 0.08	3.25 ± 0.081	3.36 ± 0.06	3.06 ± 0.068
SLTEKFSQTVADNNDLQ [ECM29]	2.48 ± 0.049	2.71 ± 0.056	2.64 ± 0.068	2.35 ± 0.048
IAYGASQLLLERLMISS [RET1]	1.75 ± 0.092	1.94 ± 0.073	2 ± 0.16	1.39 ± 0.069
GENAAEKPDNSNHNNLN [SNF2]	3.01 ± 0.068	3.25 ± 0.064	3.27 ± 0.05	3.21 ± 0.035
IDLDHKRFLILQGEVEN [SMC4]	1.58 ± 0.073	2.09 ± 0.087	1.81 ± 0.09	2.46 ± 0.057
DDNEMTRDDLLTILMRS [RRI2]	2.44 ± 0.2	2.66 ± 0.19	–	–
